From PMC9251408 (2022)

T1: IL-10 receptor alpha (Mus musculus, UniProt Q61727)
T1 chain: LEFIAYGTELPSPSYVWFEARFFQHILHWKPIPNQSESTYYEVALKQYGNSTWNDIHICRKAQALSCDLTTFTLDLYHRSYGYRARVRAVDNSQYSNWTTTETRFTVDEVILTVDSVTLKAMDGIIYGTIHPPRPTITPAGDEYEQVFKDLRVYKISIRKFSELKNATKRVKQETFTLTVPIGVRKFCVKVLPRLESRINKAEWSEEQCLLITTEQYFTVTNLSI

T2: IL-10 receptor alpha (Homo sapiens, UniProt Q13651)
T2 chain: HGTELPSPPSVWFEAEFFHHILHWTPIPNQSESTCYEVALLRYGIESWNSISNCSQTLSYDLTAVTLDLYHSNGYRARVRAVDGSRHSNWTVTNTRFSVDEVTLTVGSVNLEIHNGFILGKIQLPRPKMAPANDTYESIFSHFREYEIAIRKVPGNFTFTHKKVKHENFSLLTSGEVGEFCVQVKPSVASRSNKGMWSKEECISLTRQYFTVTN


Columns and labels:
IL-10 receptor alpha [1] = molecular target: T1, IL-10 receptor alpha
IL-10 receptor alpha [2] = molecular target: T2, IL-10 receptor alpha

Row | Binder | Kd (IL-10 receptor alpha [1]) [nM] | Kd (IL-10 receptor alpha [2]) [nM]
1 | hFc-hIL-10 (human IL-10 human Fc-fusion) (protein, IL-10 fused to C-terminus of effector-reduced human Fc via Gly-Ser linker) SPGQGTQSENSCTHFPGNLPNMLRDLRDAFSRVKTFFQMKDQLDNLLLKESLLEDFKGYLGCQALSEMIQFYLEEVMPQAENQDPDIKAHVNSLGENLKTLRLRLRRCHRFLPCENKSKAVEQVKNAFNKLQEKGIYKAMSEFDIFINYIEAYMTMKIRN | 2.9 | 0.6
2 | mFc-mIL-10 (mouse IL-10 mouse Fc-fusion) (protein, IL-10 fused to C-terminus of effector-reduced mouse Fc via Gly-Ser linker) SRGQYSREDNNCTHFPVGQSHMLLELRTAFSQVKTFFQTKDQLDNILLTDSLMQDFKGYLGCQALSEMIQFYLVEVMPQAEKHGPEIKEHLNSLGEKLKTLRMRLRRCHRFLPCENKSKAVEQVKSDFNKLQDQGVYKAMNEFDIFINCIEAYMMIKMKS | 3.2 | 
